“And” between values parts separate entries of the source, which are not always exact repeats. Equal values may be shown once. Read-outs that look alike come from different tables or passages of the source.
Columns and labels:
[1] = target: rat sst1 receptor (expressed in stably transfected CHO-K1 cells, CHO-R1) (rat) (UniProt P28646); experiment: PEG precipitation of solubilised radioligand-receptor complex from CHO-R1 cells
[2] = target: sst3 receptor (expressed in stably transfected CHO-K1 cells, CHO-R3); experiment: PEG precipitation of solubilised radioligand-receptor complex from CHO-R3 cells
[3] = target: rat sst1 receptor (expressed in stably transfected CHO-K1 cells, CHO-R1) (rat) (UniProt P28646); experiment: PEG precipitation of solubilised radioligand-receptor complex from CHO-R1 cells; remark: listed apart in the source
[4] = target: sst4 receptor (expressed in stably transfected CHO-K1 cells, CHO-R4); experiment: PEG precipitation of solubilised radioligand-receptor complex from CHO-R4 cells
[5] = target: rat sst2A receptor (expressed in stably transfected CHO-K1 cells, CHO-R2 / CHO-R2A) (rat) (UniProt P30680); experiment: PEG precipitation of solubilised radioligand-receptor complex from CHO-R2 cells
[6] = target: rat sst1 receptor (expressed in stably transfected CHO-K1 cells, CHO-R1) (rat) (UniProt P28646); experiment: PEG precipitation of solubilised radioligand-receptor complex from CHO-R1 cells; remark: listed apart in the source
[7] = target: rat sst1 receptor (expressed in stably transfected CHO-K1 cells, CHO-R1) (rat) (UniProt P28646); experiment: as above; remark: listed apart in the source
[8] = target: sst4 receptor (expressed in stably transfected CHO-K1 cells, CHO-R4); experiment: PEG precipitation of solubilised radioligand-receptor complex from CHO-R4 cells; remark: listed apart in the source
[9] = target: rat sst1 receptor (expressed in stably transfected CHO-K1 cells, CHO-R1) (rat) (UniProt P28646); experiment: PEG precipitation of solubilised radioligand-receptor complex from CHO-R1 cells; remark: listed apart in the source
[10] = target: rat sst2A receptor (expressed in stably transfected CHO-K1 cells, CHO-R2 / CHO-R2A) (rat) (UniProt P30680); experiment: PEG precipitation of solubilised radioligand-receptor complex from CHO-R2 cells; remark: listed apart in the source
[11] = target: rat sst1 receptor (expressed in stably transfected CHO-K1 cells, CHO-R1) (rat) (UniProt P28646); experiment: dissociation from the receptor complex immunoprecipitated with R1-201 from CHO-R1 cells, no guanine nucleotide
[12] = target: rat sst2A receptor (expressed in stably transfected CHO-K1 cells, CHO-R2 / CHO-R2A) (rat) (UniProt P30680); experiment: dissociation from the receptor complex immunoprecipitated with R2-88 from GH4C1 cells, no guanine nucleotide
[13] = target: sst4 receptor (expressed in stably transfected CHO-K1 cells, CHO-R4); experiment: PEG precipitation of solubilised radioligand-receptor complex from CHO-R4 cells; remark: listed apart in the source
[14] = target: rat sst2A receptor (expressed in stably transfected CHO-K1 cells, CHO-R2 / CHO-R2A) (rat) (UniProt P30680); experiment: PEG precipitation of solubilised radioligand-receptor complex from CHO-R2 cells; remark: listed apart in the source

## [125I-Tyr11]SRIF (peptide)
[1]
  Precipitated Complex (cpm), PEG: 15100 cpm
[2]
  Precipitated Complex (cpm), PEG: 683 cpm
[3]
  Precipitated Complex (cpm), PEG: 7060 cpm
[4]
  Precipitated Complex (cpm), PEG: 12500 cpm
[5]
  Precipitated Complex (cpm), PEG: 8490 cpm
[6]
  Precipitated Complex (cpm), PEG: 8350 cpm
[7]
  Precipitated Complex (cpm), PEG: 7100 cpm
[8]
  Precipitated Complex (cpm), PEG: 4980 cpm and 10000 cpm
[9]
  Precipitated Complex (cpm), PEG: 706 cpm
[10]
  Precipitated Complex (cpm), PEG: 8840 cpm and 6330 cpm
[11]
  percent of specifically bound ligand dissociated: 53%
[12]
  percent of specifically bound ligand dissociated: 12%
[13]
  Precipitated Complex (cpm), PEG: 10000 cpm
[14]
  Precipitated Complex (cpm), PEG: 16200 cpm

— patent US5998154
